In patent US20050064507:

Tests used:
[1] = target: T1, dag kinase iota peptide PQNSLKASNRKKKRTSFKRK (SEQ ID NO:151) (not fully specified)
T1 chain: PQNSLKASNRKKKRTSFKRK

[2] = target: T2, ERN1 peptide KLAVGRHSFSRRSGV (SEQ ID NO:94) (not fully specified)
T2 chain: KLAVGRHSFSRRSGV

[3] = target: T3, cyclophilin G peptide TEEKSKKRKKKHRKNSRKHK (SEQ ID NO:165) (not fully specified)
T3 chain: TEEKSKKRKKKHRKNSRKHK

[4] = target: T4, beta adducin peptide PSKSPSKKKKKFRTPSFLKK (SEQ ID NO:137) (not fully specified)
T4 chain: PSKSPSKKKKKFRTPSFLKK

[5] = target: T5, CHRM1 peptide RKIPKRPGSVHRTPSRQ (SEQ ID NO:83) (not fully specified)
T5 chain: RKIPKRPGSVHRTPSRQ

[6] = target: T6, PRKCM peptide VHYTSKDTLRKRHYWR (SEQ ID NO:91) (not fully specified)
T6 chain: VHYTSKDTLRKRHYWR

[7] = target: T7, serine/threonine-protein kinase PRP4 peptide RGRRSRSRLRRR (SEQ ID NO:199) (not fully specified)
T7 chain: RGRRSRSRLRRR

[8] = target: T8, PLD1 peptide KYKAFIRIPIPTRRHTFRRQ (SEQ ID NO:161) (not fully specified)
T8 chain: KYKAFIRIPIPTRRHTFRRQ

[9] = target: T9, SPTBN4 peptide EGGDRRASGRRK (SEQ ID NO:110) (not fully specified)
T9 chain: EGGDRRASGRRK

[10] = target: T10, p164-RhoGEF peptide PRLIRRGSKKRPAR (SEQ ID NO:124) (not fully specified)
T10 chain: PRLIRRGSKKRPAR

[11] = target: T11, MARCKS peptide KKRFSFKKSFKLSGFSFKKN (SEQ ID NO:119) (not fully specified)
T11 chain: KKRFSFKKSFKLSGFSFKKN

[12] = target: T12, PARIS1 peptide EYLERRASRRRAV (SEQ ID NO:130) (not fully specified)
T12 chain: EYLERRASRRRAV

[13] = target: T13, titin peptide PFEVVWYKDKRQLRSSKKYK (SEQ ID NO:160) (not fully specified)
T13 chain: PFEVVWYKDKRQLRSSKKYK

[14] = target: T14, phospholemman peptide EEGTFRSSIRRLSTRRR (SEQ ID NO:116) (not fully specified)
T14 chain: EEGTFRSSIRRLSTRRR

[15] = target: T15, nuclear RNA export factor 3 peptide VRYTPYTISPYNRKGSFRKQ (SEQ ID NO:143) (not fully specified)
T15 chain: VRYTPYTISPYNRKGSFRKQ

[16] = target: T16, LIMK-2 peptide LRRRSLRRSNSISKSPGP (SEQ ID NO:121) (not fully specified)
T16 chain: LRRRSLRRSNSISKSPGP

[17] = target: T17, ERN1 peptide ISDFGLAKKLAVGRHSFSRR (SEQ ID NO:145) (not fully specified)
T17 chain: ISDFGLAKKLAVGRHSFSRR

[18] = target: T18, EBNA1BP2 peptide KRPGKKGSNKRPGKR (SEQ ID NO:112) (not fully specified)
T18 chain: KRPGKKGSNKRPGKR

[19] = target: T19, HERG peptide TELEGGFSRQRKRKLSFRRR (SEQ ID NO:140) (not fully specified)
T19 chain: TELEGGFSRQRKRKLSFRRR

[20] = target: T20, LRMP peptide RFSRRSSSWRIL (SEQ ID NO:204) (not fully specified)
T20 chain: RFSRRSSSWRIL

[21] = target: T21, MLK3 peptide HVRRRRGTFKRSKLRARD (SEQ ID NO:76) (not fully specified)
T21 chain: HVRRRRGTFKRSKLRARD

[22] = target: T22, MCM2 peptide VQRHRSMRKTFARYLSFRRD (SEQ ID NO:129) (not fully specified)
T22 chain: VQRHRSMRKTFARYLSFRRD

[23] = target: T23, ARHGAP6 peptide DGQKRKKSLRKKLD (SEQ ID NO:92) (not fully specified)
T23 chain: DGQKRKKSLRKKLD

[24] = target: T24, dag kinase zeta peptide KKKKRASFKRKSSKKG (SEQ ID NO:114) (not fully specified)
T24 chain: KKKKRASFKRKSSKKG

[25] = target: T25, MARCKS peptide KKKRFSFKKSFKLSGFSFKK (SEQ ID NO:111) (not fully specified)
T25 chain: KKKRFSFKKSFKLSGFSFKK

[26] = target: T26, GABRB2 peptide QKKSRLRRRASQLKI (SEQ ID NO:84) (not fully specified)
T26 chain: QKKSRLRRRASQLKI

[27] = target: T27, PKD1 peptide RVVQSVKHTKRKSSTVMK (SEQ ID NO:149) (not fully specified)
T27 chain: RVVQSVKHTKRKSSTVMK

[28] = target: T28, NCF1 peptide GAPPRRSSIRNAH (SEQ ID NO:101) (not fully specified)
T28 chain: GAPPRRSSIRNAH

[29] = target: T29, PRKCA peptide RFARKGSLRQKNV (SEQ ID NO:85) (not fully specified)
T29 chain: RFARKGSLRQKNV

[30] = target: T30, GABA A receptor beta 2 peptide ERHVAQKKSRLRRRASQLKI (SEQ ID NO:142) (not fully specified)
T30 chain: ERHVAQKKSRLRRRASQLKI

[31] = target: T31, splicing factor, arginine/serine-rich 4 peptide RSRSRSRSKSKDKRKSRKRS (SEQ ID NO:134) (not fully specified)
T31 chain: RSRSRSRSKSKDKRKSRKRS

B1: PKC-theta (protein)
chain: MSPFLRIGLSNFDCGSCQSCQGEAVNPYCAVLVKEYVESENGQMYIQKKPTMYPPWDSTFDAHINKGRVMQIIVKGKNVDLISETTVELYSLAERCRKNNGKTEIWLELKPQGRMLMNARYFLEMSDTKDMNEFETEGFFALHQRRGAIKQAKVHHVKCHEFTATFFPQPTFCSVCHEFVWGLNKQGYQCRQCNAAIHKKCIDKVIAKCTGSAINSRETMFHKERFKIDMPHRFKVYNYKSPTFCEHCGTLLWGLARQGLKCDACGMNVHHRCQTKVANLCGINQKLMAEALAMIESTQQARCLRDTEQIFREGPVEIGLPCSIKNEARPPCLPTPGKREPQGISWESPLDEVDKMCHLPEPELNKERPSLQIKLKIEDFILHKMLGKGSFGKVFLAEFKKTNQFFAIKALKKDVVLMDDDVECTMVEKRVLSLAWEHPFLTHMFCTFQTKENLFFVMEYLNGGDLMYHIQSCHKFDLSRATFYAAEIILGLQFLHSKGIVYRDLKLDNILLDKDGHIKIADFGMCKENMLGDAKTNTFCGTPDYIAPEILLGQKYNHSVDWWSFGVLLYEMLIGQSPFHGQDEEELFHSIRMDNPFYPRWLEKEAKDLLVKLFVREPEKRLGVRGDIRQHPLFREINWEELERKEIDPPFRPKVKSPFDCSNFDKEFLNEKPRLSFADRALINSMDQNMFRNFSFMNPGMERLIS
[1]
  in vitro phosphorylation, 1 uM peptide (% of best substrate): 25
  in vitro phosphorylation, 10 uM peptide (% of best substrate): 19
[2]
  in vitro phosphorylation (% of best substrate): 86
[3]
  in vitro phosphorylation, 1 uM peptide (% of best substrate): 16
  in vitro phosphorylation, 10 uM peptide (% of best substrate): 14
[4]
  in vitro phosphorylation, 1 uM peptide (% of best substrate): 40
  in vitro phosphorylation, 10 uM peptide (% of best substrate): 19
[5]
  in vitro phosphorylation (% of best substrate): 92
[6]
  in vitro phosphorylation (% of best substrate): 10
[7]
  in vitro phosphorylation (% of best substrate): 27
[8]
  in vitro phosphorylation, 1 uM peptide (% of best substrate): 19
  in vitro phosphorylation, 10 uM peptide (% of best substrate): 23
[9]
  in vitro phosphorylation (% of best substrate): 22
[10]
  in vitro phosphorylation, 1 uM peptide (% of best substrate): 53
  in vitro phosphorylation, 10 uM peptide (% of best substrate): 57
[11]
  in vitro phosphorylation, 1 uM peptide (% of best substrate): 69
  in vitro phosphorylation, 10 uM peptide (% of best substrate): 28
[12]
  in vitro phosphorylation, 1 uM peptide (% of best substrate): 38
  in vitro phosphorylation, 10 uM peptide (% of best substrate): 44
[13]
  in vitro phosphorylation, 1 uM peptide (% of best substrate): 19
  in vitro phosphorylation, 10 uM peptide (% of best substrate): 25
[14]
  in vitro phosphorylation, 1 uM peptide (% of best substrate): 83
  in vitro phosphorylation, 10 uM peptide (% of best substrate): 78
[15]
  in vitro phosphorylation, 1 uM peptide (% of best substrate): 25
  in vitro phosphorylation, 10 uM peptide (% of best substrate): 27
[16]
  Peptide phosphorylation by PKC-theta: 57
  in vitro phosphorylation, 1 uM peptide (% of best substrate): 51
  in vitro phosphorylation, 10 uM peptide (% of best substrate): 57
[17]
  in vitro phosphorylation, 1 uM peptide (% of best substrate): 27
  in vitro phosphorylation, 10 uM peptide (% of best substrate): 25
[18]
  in vitro phosphorylation (% of best substrate): 17
[19]
  in vitro phosphorylation, 1 uM peptide (% of best substrate): 25
  in vitro phosphorylation, 10 uM peptide (% of best substrate): 35
[20]
  in vitro phosphorylation (% of best substrate): 22
[21]
  Peptide phosphorylation by PKC-theta: 99
  in vitro phosphorylation (% of best substrate): 100
[22]
  in vitro phosphorylation, 1 uM peptide (% of best substrate): 48
  in vitro phosphorylation, 10 uM peptide (% of best substrate): 25
[23]
  in vitro phosphorylation (% of best substrate): 47
[24]
  in vitro phosphorylation, 1 uM peptide (% of best substrate): 100
  in vitro phosphorylation, 10 uM peptide (% of best substrate): 86
[25]
  in vitro phosphorylation (% of best substrate): 18
[26]
  in vitro phosphorylation (% of best substrate): 87
[27]
  in vitro phosphorylation, 1 uM peptide (% of best substrate): 13
  in vitro phosphorylation, 10 uM peptide (% of best substrate): 14
[28]
  in vitro phosphorylation (% of best substrate): 29
[29]
  in vitro phosphorylation (% of best substrate): 46
[30]
  in vitro phosphorylation, 1 uM peptide (% of best substrate): 28
  in vitro phosphorylation, 10 uM peptide (% of best substrate): 37
[31]
  in vitro phosphorylation, 1 uM peptide (% of best substrate): 36
  in vitro phosphorylation, 10 uM peptide (% of best substrate): 16
